# Square brackets hold non-standard residues; d marks the D form. Ends that are not written are not given here. Phe(4-F) = N[C@@H](Cc1ccc(F)cc1)C(=O)O; Phg = N[C@H](C(=O)O)c1ccccc1; Tle = CC(C)(C)[C@H](N)C(=O)O; Nle = CCCC[C@H](N)C(=O)O; Nva = CCC[C@H](N)C(=O)O
# Experiments:
# CDK2/cyclin A = CDK2/cyclin A (Homo sapiens, UniProt P20248); assay: CDK2/cyclin A kinase assay, substrate pRb(773-928); assay type: biochemical; conditions: relative to H-His-Ala-Lys-Arg-Arg-Leu-Ile-Phe-NH2 (=1), pRb substrate, [ATP] = 100 μM
# From the text: Reactions were stopped on ice, followed by filtration through p81 filterplates (Whatman Polyfiltronics, Kent, UK).
# Cyclin A = Cyclin A (Homo sapiens, UniProt P20248); assay: Cyclin A binding assay, immobilised biotinyl-Ahx-[…]NH2; conditions: relative to H-His-Ala-Lys-Arg-Arg-Leu-Ile-Phe-NH2 (=1)
# Description: This was added to each well (100 μL). The plate was incubated for 1 h at room temperature with constant shaking. The plate was washed once quickly with TBS/BSA buffer (200 μL), followed by three more washes with TBS/BSA buffer (200 μL) for 5 min each. Serial dilutions of test peptides were prepared in a new plate (50 μL in each well). Cyclin A was diluted to 5 μg/50 μL with TBS/BSA buffer and this was then added to each well (50 μL). The solutions were mixed thoroughly with a pipette (5-6 times), before being incubated for 30 min at room temperature. This reaction mixture was then transferred to the biotinylated peptide: streptavidin-coated plate and incubated for 1 h at room temperature with constant shaking. The plate was washed once quickly with TBS/BSA buffer (200 μL), followed by three more washes with TBS/BSA buffer (200 μL) for 5 min each. The cyclin A antibody (Santa Cruz polyclonal) solution was diluted 1:200 with TBS/BSA buffer and this was then added to each well of the plate (100 μL. The plate was incubated for 1 h at room temperature with constant shaking. The plate was washed once quickly with TBS/BSA buffer (200 μl), followed by three more washes with TBS/BSA buffer (200 μL) for 5 min each. The anti-rabbit secondary antibody (goat anti-rabbit IgG peroxidase conjugate) was diluted 1:10,000 with TBS/BSA and this was then added to each well of the plate (100 μL). The plate was incubated for 1 h at room temperature with constant shaking. The plate was washed once quickly with TBS/BSA buffer (200 μL), followed by three more washes with TBS/BSA buffer (200 μL) for 5 min each. To each well was added the TMB-ELISA reagent (Pierce 1-Step™ Turbo TMB-ELISA; 100 μL) and the plate incubated for 1 min with constant shaking. The reaction was then quenched by the addition of 2 M aqueous H2SO4 (100 μL, each well). The UV absorbance of the each solution was measured spectrophotometrically at 450 nm. IC50 values were calculated from dose-response curves.
# Chain of Cyclin A (P20248 whole entry): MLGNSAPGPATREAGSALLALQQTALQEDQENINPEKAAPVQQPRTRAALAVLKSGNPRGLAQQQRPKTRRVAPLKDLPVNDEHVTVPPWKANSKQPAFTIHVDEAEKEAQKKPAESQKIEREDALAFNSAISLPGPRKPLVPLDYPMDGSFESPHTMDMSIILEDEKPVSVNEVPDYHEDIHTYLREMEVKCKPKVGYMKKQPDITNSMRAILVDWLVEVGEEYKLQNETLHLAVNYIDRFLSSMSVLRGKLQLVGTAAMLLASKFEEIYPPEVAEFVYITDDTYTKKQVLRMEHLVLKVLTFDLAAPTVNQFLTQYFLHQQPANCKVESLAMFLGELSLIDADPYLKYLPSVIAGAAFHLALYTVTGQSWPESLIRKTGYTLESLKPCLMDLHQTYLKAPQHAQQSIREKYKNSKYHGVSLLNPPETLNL
substance,measurement,setting,value
H-His-Ala-Lys-Arg-Arg-Leu-Ile-pFPhe-NH2 (H-HAKRRLI[Phe(4-F)]-NH2; SMILES CC[C@H](C)[C@H](NC(=O)[C@H](CC(C)C)NC(=O)[C@H](CCCNC(=N)N)NC(=O)[C@H](CCCNC(=N)N)NC(=O)[C@H](CCCCN)NC(=O)[C@H](C)NC(=O)[C@@H](N)Cc1c[nH]cn1)C(=O)N[C@@H](Cc1ccc(F)cc1)C(N)=O),Relative activity Kinase Inhibition,CDK2/cyclin A; Phe159 substitutions,1
same,Relative activity Cyclin A Binding,Cyclin A; Phe159 substitutions,5
H-His-Ala-Lys-Arg-Arg-Leu-Nle Phe-NH2 (H-HAKRRL[Nle]F-NH2; SMILES CCCC[C@H](NC(=O)[C@H](CC(C)C)NC(=O)[C@H](CCCNC(=N)N)NC(=O)[C@H](CCCNC(=N)N)NC(=O)[C@H](CCCCN)NC(=O)[C@H](C)NC(=O)[C@@H](N)Cc1c[nH]cn1)C(=O)N[C@@H](Cc1ccccc1)C(N)=O),Relative activity Kinase Inhibition,CDK2/cyclin A; Ile158 substitutions,0.4
same,Relative activity Cyclin A Binding,Cyclin A; Ile158 substitutions,0.3
H-His-Ala-Lys-Arg-Arg-Leu-Nva Phe-NH2 (H-HAKRRL[Nva]F-NH2; SMILES CCC[C@H](NC(=O)[C@H](CC(C)C)NC(=O)[C@H](CCCNC(=N)N)NC(=O)[C@H](CCCNC(=N)N)NC(=O)[C@H](CCCCN)NC(=O)[C@H](C)NC(=O)[C@@H](N)Cc1c[nH]cn1)C(=O)N[C@@H](Cc1ccccc1)C(N)=O),Relative activity Kinase Inhibition,CDK2/cyclin A; Ile158 substitutions,0.2
same,Relative activity Cyclin A Binding,Cyclin A; Ile158 substitutions,0.6
H-His-Ala-Lys-Arg-Arg-Nle-Ile Phe-NH2 (H-HAKRR[Nle]IF-NH2; SMILES CCCC[C@H](NC(=O)[C@H](CCCNC(=N)N)NC(=O)[C@H](CCCNC(=N)N)NC(=O)[C@H](CCCCN)NC(=O)[C@H](C)NC(=O)[C@@H](N)Cc1c[nH]cn1)C(=O)N[C@H](C(=O)N[C@@H](Cc1ccccc1)C(N)=O)[C@@H](C)CC),Relative activity Kinase Inhibition,CDK2/cyclin A; Leu157 substitutions,<0.1
same,Relative activity Cyclin A Binding,Cyclin A; Leu157 substitutions,<0.1
H-His-Ala-Lys-Arg-Arg-Nva-Ile Phe-NH2 (H-HAKRR[Nva]IF-NH2; SMILES CCC[C@H](NC(=O)[C@H](CCCNC(=N)N)NC(=O)[C@H](CCCNC(=N)N)NC(=O)[C@H](CCCCN)NC(=O)[C@H](C)NC(=O)[C@@H](N)Cc1c[nH]cn1)C(=O)N[C@H](C(=O)N[C@@H](Cc1ccccc1)C(N)=O)[C@@H](C)CC),Relative activity Kinase Inhibition,CDK2/cyclin A; Leu157 substitutions,<0.1
same,Relative activity Cyclin A Binding,Cyclin A; Leu157 substitutions,<0.1
H-His-Ala-Lys-Arg-Arg-Phe-Ile Phe-NH2 (H-HAKRRFIF-NH2),Relative activity Kinase Inhibition,CDK2/cyclin A; Leu157 substitutions,<0.1
same,Relative activity Cyclin A Binding,Cyclin A; Leu157 substitutions,<0.1
H-His-Ala-Lys-Arg-Arg-Val-Ile Phe-NH2 (H-HAKRRVIF-NH2),Relative activity Kinase Inhibition,CDK2/cyclin A; Leu157 substitutions,<0.1
same,Relative activity Cyclin A Binding,Cyclin A; Leu157 substitutions,<0.1
H-His-Ala-Lys-Arg-Asn-Leu-Ile Phe-NH2 (H-HAKRNLIF-NH2),Relative activity Kinase Inhibition,CDK2/cyclin A; Arg156 substitutions,<0.1
same,Relative activity Cyclin A Binding,Cyclin A; Arg156 substitutions,<0.1
H-His-Ala-Lys-Arg-Ser-Leu-Ile Phe-NH2 (H-HAKRSLIF-NH2),Relative activity Kinase Inhibition,CDK2/cyclin A; Arg156 substitutions,0.7
same,Relative activity Cyclin A Binding,Cyclin A; Arg156 substitutions,0.2
H-His-Ala-Lys-Gln-Arg-Leu-Ile Phe-NH2 (H-HAKQRLIF-NH2),Relative activity Kinase Inhibition,CDK2/cyclin A; Arg155 substitutions,<0.1
same,Relative activity Cyclin A Binding,Cyclin A; Arg155 substitutions,<0.1
H-His-Ala-Lys-Lys-Arg-Leu-Ile Phe-NH2 (H-HAKKRLIF-NH2),Relative activity Kinase Inhibition,CDK2/cyclin A; Arg155 substitutions,0.8
same,Relative activity Cyclin A Binding,Cyclin A; Arg155 substitutions,0.1
H-His-Ala-Lys-Nle-Arg-Leu-Ile Phe-NH2 (H-HAKHRLIF-NH2; not fully specified (residue 4); printed as H-His-Ala-Lys-Nle-Arg-Leu-Ile Phe-NH2),Relative activity Kinase Inhibition,CDK2/cyclin A; Arg155 substitutions,<0.1
same,Relative activity Cyclin A Binding,Cyclin A; Arg155 substitutions,<0.1
H-His-Ala-Nle-Arg-Arg-Leu-Ile Phe-NH2 (H-HA[Nle]RRLIF-NH2; SMILES CCCC[C@H](NC(=O)[C@H](C)NC(=O)[C@@H](N)Cc1c[nH]cn1)C(=O)N[C@@H](CCCNC(=N)N)C(=O)N[C@@H](CCCNC(=N)N)C(=O)N[C@@H](CC(C)C)C(=O)N[C@H](C(=O)N[C@@H](Cc1ccccc1)C(N)=O)[C@@H](C)CC),Relative activity Kinase Inhibition,CDK2/cyclin A; Lys154 substitutions,03
same,Relative activity Cyclin A Binding,Cyclin A; Lys154 substitutions,0.2
H-His-Bug-Lys-Arg-Arg-Leu-Ile Phe-NH2 (H-H[Tle]KRRLIF-NH2; SMILES CC[C@H](C)[C@H](NC(=O)[C@H](CC(C)C)NC(=O)[C@H](CCCNC(=N)N)NC(=O)[C@H](CCCNC(=N)N)NC(=O)[C@H](CCCCN)NC(=O)[C@@H](NC(=O)[C@@H](N)Cc1c[nH]cn1)C(C)(C)C)C(=O)N[C@@H](Cc1ccccc1)C(N)=O),Relative activity Kinase Inhibition,CDK2/cyclin A; Ala153 substitutions,0.2
same,Relative activity Cyclin A Binding,Cyclin A; Ala153 substitutions,1.2
H-His-Gly-Lys-Arg-Arg-Leu-Ile Phe-NH2 (H-HGKRRLIF-NH2),Relative activity Kinase Inhibition,CDK2/cyclin A; Ala153 substitutions,0.1
same,Relative activity Cyclin A Binding,Cyclin A; Ala153 substitutions,0.1
H-His-Ile-Lys-Arg-Arg-Leu-Ile Phe-NH2 (H-HIKRRLIF-NH2),Relative activity Kinase Inhibition,CDK2/cyclin A; Ala153 substitutions,0.5
same,Relative activity Cyclin A Binding,Cyclin A; Ala153 substitutions,0.2
H-His-Nva-Lys-Arg-Arg.Leu-Ile Phe.NH2 (H-H[Nva]KRRLIF-NH2; SMILES CCC[C@H](NC(=O)[C@@H](N)Cc1c[nH]cn1)C(=O)N[C@@H](CCCCN)C(=O)N[C@@H](CCCNC(=N)N)C(=O)N[C@@H](CCCNC(=N)N)C(=O)N[C@@H](CC(C)C)C(=O)N[C@H](C(=O)N[C@@H](Cc1ccccc1)C(N)=O)[C@@H](C)CC),Relative activity Kinase Inhibition,CDK2/cyclin A; Ala153 substitutions,<0.1
same,Relative activity Cyclin A Binding,Cyclin A; Ala153 substitutions,<0.1
H-His-Phe-Lys-Arg-Arg-Leu-Ile Phe-NH2 (H-HFKRRLIF-NH2),Relative activity Kinase Inhibition,CDK2/cyclin A; Ala153 substitutions,0.5
same,Relative activity Cyclin A Binding,Cyclin A; Ala153 substitutions,0.2
H-His-Phg-Lys-Arg-Arg-Leu-Ile Phe-NH2 (H-H[Phg]KRRLIF-NH2; not fully specified; printed as H-His-Phg-Lys-Arg-Arg-Leu-Ile Phe-NH2),Relative activity Kinase Inhibition,CDK2/cyclin A; Ala153 substitutions,<0.1
same,Relative activity Cyclin A Binding,Cyclin A; Ala153 substitutions,<0.1
H-His-Val-Lys-Arg-Arg-Leu-Ile Phe-NH2 (H-HVKRRLIF-NH2),Relative activity Kinase Inhibition,CDK2/cyclin A; Ala153 substitutions,2
same,Relative activity Cyclin A Binding,Cyclin A; Ala153 substitutions,1.7
"H-Hse-Ala-Lys-Arg-Arg-Leu-Ile Phe-NH2 (XAKRRLIF; N-terminal Hse, C-terminal amide)",Relative activity Kinase Inhibition,CDK2/cyclin A; His152 substitutions,2
same,Relative activity Cyclin A Binding,Cyclin A; His152 substitutions,2
H-Phe-Ala-Lys-Arg-Arg-Leu.Ile Phe-NH2 (H-FAKRRLIF-NH2),Relative activity Kinase Inhibition,CDK2/cyclin A; His152 substitutions,3
same,Relative activity Cyclin A Binding,Cyclin A; His152 substitutions,1
"H-Pya-Ala-Lys-Arg-Arg-Leu-Ile Phe-NH2 (XAKRRLIF; N-terminal Pya, C-terminal amide)",Relative activity Kinase Inhibition,CDK2/cyclin A; His152 substitutions,<0.1
same,Relative activity Cyclin A Binding,Cyclin A; His152 substitutions,0.2
"H-Thi-Ala-Lys-Arg-Arg-Leu-Ile Phe-NH2 (XAKRRLIF; N-terminal Thi, C-terminal amide)",Relative activity Kinase Inhibition,CDK2/cyclin A; His152 substitutions,2
same,Relative activity Cyclin A Binding,Cyclin A; His152 substitutions,0.2
HAKRRLAF-NH2,Relative activity Kinase Inhibition,CDK2/cyclin A; Ile158 substitutions,0.3
same,Relative activity Cyclin A Binding,Cyclin A; Ile158 substitutions,0.8
HAKRRLF-NH2 [H-His-Ala-Lys-Arg-Arg-Leu-Phe-NH2],Relative activity Kinase Inhibition,CDK2/cyclin A; Ile158 substitutions,<0.1
same,Relative activity Cyclin A Binding,Cyclin A; Ile158 substitutions,<0.1
HAKRRLFF-NH2,Relative activity Kinase Inhibition,CDK2/cyclin A; Ile158 substitutions,0.4
same,Relative activity Cyclin A Binding,Cyclin A; Ile158 substitutions,0.4
HAKRRLIK-NH2,Relative activity Kinase Inhibition,CDK2/cyclin A; Phe159 substitutions,<0.1
same,Relative activity Cyclin A Binding,Cyclin A; Phe159 substitutions,<0.1
HAKRRLIL-NH2,Relative activity Kinase Inhibition,CDK2/cyclin A; Phe159 substitutions,0.3
same,Relative activity Cyclin A Binding,Cyclin A; Phe159 substitutions,<0.1
HAKRRLIW-NH2,Relative activity Kinase Inhibition,CDK2/cyclin A; Phe159 substitutions,0.3
same,Relative activity Cyclin A Binding,Cyclin A; Phe159 substitutions,0.1

# — patent US20050153894A1, “p21 peptides” (Cyclacel Limited, priority 1999, published 2005)
